For test [1], the target named is T1, recombinant mouse matrilin-3 protein (mouse, UniProt O35701 28-481, limits assumed).
T1 construct: also called mouse recombinant matrilin-3; His-Tagged recombinant mouse matrilin-3
T1 sequence (looked up): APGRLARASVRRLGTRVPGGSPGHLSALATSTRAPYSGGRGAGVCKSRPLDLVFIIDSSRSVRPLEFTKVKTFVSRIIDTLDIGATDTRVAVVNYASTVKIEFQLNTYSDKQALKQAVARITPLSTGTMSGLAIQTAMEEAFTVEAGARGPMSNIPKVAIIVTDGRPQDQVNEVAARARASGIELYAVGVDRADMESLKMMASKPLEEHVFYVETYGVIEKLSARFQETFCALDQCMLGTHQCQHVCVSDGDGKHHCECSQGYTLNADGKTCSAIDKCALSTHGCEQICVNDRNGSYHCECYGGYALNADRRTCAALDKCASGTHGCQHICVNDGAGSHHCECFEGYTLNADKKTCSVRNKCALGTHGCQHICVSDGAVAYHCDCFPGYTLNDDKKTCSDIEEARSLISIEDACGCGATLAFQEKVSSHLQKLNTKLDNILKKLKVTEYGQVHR
The test can be described thus: ELISA, coated recombinant matrilin-3, purified scFv-Fc titrated 230 nM to 0.014 nM, HRP anti-Fc. (In general: ELISA stands for enzyme-linked immunosorbent assay.)

The target in test [2] is T2, recombinant human matrilin-3 protein (human, UniProt O15232 29-486).
T2 construct: Bought from R&D Systems; It was biotinylated through an Avi tag for the library selection; also called human recombinant matrilin-3
T2 sequence: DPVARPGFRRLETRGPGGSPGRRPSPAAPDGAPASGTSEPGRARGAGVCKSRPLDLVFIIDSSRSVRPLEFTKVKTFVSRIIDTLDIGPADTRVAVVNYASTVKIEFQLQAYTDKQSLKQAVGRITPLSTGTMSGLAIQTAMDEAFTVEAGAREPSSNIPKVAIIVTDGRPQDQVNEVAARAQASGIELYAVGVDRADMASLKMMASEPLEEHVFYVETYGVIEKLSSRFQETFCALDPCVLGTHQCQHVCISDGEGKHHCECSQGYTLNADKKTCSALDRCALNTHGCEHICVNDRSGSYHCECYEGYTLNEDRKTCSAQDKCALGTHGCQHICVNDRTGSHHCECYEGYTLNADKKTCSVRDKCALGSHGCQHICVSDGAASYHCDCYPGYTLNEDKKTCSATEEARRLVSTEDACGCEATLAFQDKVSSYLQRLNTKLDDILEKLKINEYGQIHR
The description is as above.

Drawing on patent US20160340418A1 (US Dept. of Health and Human Services, published 2016), this text covers EC50 for 2 molecules.

The EC50 is the concentration at which the effect is half-maximal.

B1: matrilin-3-binding antibody fragment 22 (clone 22 scFv fused with human IgG1 Fc fragment) (Fc fusion)
scFv: LQQSGPGLVKPSQTLSLTCAISGDSVSSNSAAWNWIRQSPSRGLEWLGRTYYGSKWYNDYAPSVKSRISINPDTSKNQFSLQLNSVTPEDTAVYYCTRGIWNAFDIWGQGTMVTVSSGGGGSGGGASGGGGSSSELTQDPAVSVALGQTVRITCQGDSLRSYYASWYQQKPGQAPLLVIYDRDNRPSGIPDRFSGSSSGNTASLTITGAQAEDEADYYCQSYDTSLSWVFGGGTQLTVL
notes: Tested as scFv-Fc; not shown: human IgG1 Fc fragment encoded by the modified pSecTagB vector; Avi tag downstream of the Fc in the vector
Consider B1, for which the concentration giving a half-maximal response (EC50) in test [1] and in test [2] was less than 1 nM in each case.

B2: matrilin-3-binding antibody fragment 13 (clone 13 scFv fused with human IgG1 Fc fragment) (Fc fusion)
scFv: LVQSGAEVKKPGASVKVSCKASGGTFSSYAISWVRQAPGQGLEWMGGIIPIFGTANYAQKFQGRVTITADKSTSTAYMELSSLRSEDTAVYYCARGQGYWFDPWGQGTLVTVSSGGGGSGGGASSGGGSDVQLTQSPSSLSASVGDRVTITCQASQDISNYLNWYQQKPGKAPKLLIYDASNLETGVPSRFSGSGSGTDFTFTISSLQPEDIATYYCQQYDNLPLTFGGGTKLEIK
notes: Tested as scFv-Fc (culture supernatant or protein A purified); not shown: human IgG1 Fc fragment encoded by the modified pSecTagB vector; Avi tag downstream of the Fc in the vector
As for B2, the EC50 in test [1] and in test [2] was less than 1 nM throughout.
